Test results: publication PMC11624268, “Leishmania protein KMP-11 modulates cholesterol transport and membrane fluidity to facilitate host cell invasion” (EMBO Reports, 2024)
Numbering of substitutions follows the chain as printed. In names and notes the source's numbering stands.

B1: purified recombinant KMP-11 (kinetoplastid membrane protein-11), wild type (natural protein)
chain: MATTYEEFSAKLDRLDQEFNRKMQEQNAKFFADKPDESTLSPEMREHYEKFERMIKEHTEKFNKKMHEHSEHFKQKFAELLEQQKAAQYPSK
notes: amino-terminal stretch (1-19) of kinetoplastid membrane protein-11 (KMP-11), Leishmania donovani (so in the source); rest of kinetoplastid membrane protein-11 (KMP-11), Leishmania donovani, after the printed stretch 1-19; Purification by the procedure of Sharma et al, 2013; also called r-KMP-11; WT KMP-11; source: pET28a, bacterial culture, purified (Ni-NTA, endotoxin removal column, gel …)
B2: Alexa488-maleimide labeled r-KMP-11 S38C (kinetoplastid membrane protein-11, single cysteine mutant) (natural protein)
chain: B1 chain with S38C
modifications: Alexa-488 maleimide on the single cysteine (S38C); labeling percentage 86%
notes: amino-terminal stretch (1-19) of kinetoplastid membrane protein-11 (KMP-11), Leishmania donovani (so in the source); rest of kinetoplastid membrane protein-11 (KMP-11), Leishmania donovani, after the printed stretch 1-19; The labeled protein was passed through Ni NTA after labeling, so the tag was probably still there; Purification by the procedure of Sharma et al, 2013; also called …

Key:
[1] = target: the molecule itself; test: negative stain TEM; purified KMP-11 (0.1 mg/ml) in the presence of DPPC ERG (30%) SUVs; 50 mM tris pH 8.0, 150 mM NaCl; 1% uranyl acetate
[2] = target: B1; test: fluorescence correlation spectroscopy (FCS); 50 nM Alexa488Maleimide labeled r-KMP-11 in the presence of unlabeled r-KMP-11 at different total concentrations; diffusion time read out; in the absence and presence of different salt concentrations (salt facilitates self-association); conditions: both partners purified
[3] = target: the molecule itself; test: single molecule photobleaching step analysis (TIRF microscopy); 50 nM Alexa-488 maleimide labeled KMP-11 (S38C) on PEG cushioned supported bilayer of DPPC-ERG (30%); 30 min incubation; manual step counts from 235 spots

Row | Binder | stoichiometry N [1] | binding result [2] | stoichiometry N [3]
1 | B1 | 4 |  | 
2 | B2 |  | binds | 4
